The source of these data is the supplement of paper PMC9170038.

The series concerns MS2 coat protein. The series can be described thus: apparent KD of MS2 coat protein; designed switch direction (-1 OFF switch, 1 ON switch): -1; higher = weaker reporter binding. In a few lines: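 Transcription of designed RNA switches on Illumina chips was done by stalled E. coli RNA polymerase. SNAP-549-labelled MS2 coat protein was then titrated in doubling steps from 0.7 or 1.5 nM to 3 µM, with steps of 0.8–1.5 h at the lowest and 10–20 min at the highest concentration. The per-design median over clusters of curve-fitted normalised fluorescence is reported as apparent KD.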

Setting [1] is: Eterna round: R95, input ligand: microRNA oligo, concentration not stated.
[2] abbreviates: input ligand: microRNA oligo, concentration not stated.
Setting [3] is: Eterna round: R95, input ligand: FMN 200 uM.
Where [4] appears, read: Eterna round: R95, input ligand: none.

Turning to “AGAUCACAUGAGGAUCACCCAUGUGAGGAUAUGAUACUAUGUACUUCGGUACAUAGUAUCAGAAGGCAUAUGAA [Ex1-3: 73] (puzzle: Exclusion 1)”, the “apparent KD of MS2 coat protein” value under setting [1] was 28.9 nM.
As for “CUGGUGUGAGGAUAUCAAAGACCUCGGGAUAGUACCGAGGAUGAGAAGGCACAUGAGGAUCACCCAUGUAACAA [Armaleti] (puzzle: Exclusion 4)”, the “apparent KD of MS2 coat protein” value under setting [1] turned out to be 22.1 nM.
With “GUCAUACAUGAGGAUCACCCAUGUGAGGAUAUGAGUGGUGCUGCUAGGUAGUAUAGACUCAGAAGGCGCAUGAU [Malcxlusion 1 - Jieux - Exclusion 1] (Eterna round: R97, puzzle: Exclusion 1)”, the “apparent KD of MS2 coat protein” value was 288 nM (input ligand: FMN 200 uM) and 105 nM (input ligand: none).
Consider “UUUUUAUAUGAAGGAUAUACUUAACAUGAGGAUCACCCAUGUGGUGUUGUGAGUGAGUGAGUUUAGUAGAAGGUCAAGUAUUAU [JMF's solution 38] (Eterna round: R96, puzzle: Exclusion NG 2)”, for which the “apparent KD of MS2 coat protein” value reads like this: (input ligand: FMN 200 uM) 776 nM; under setting [2], 265 nM; (input ligand: none) 464 nM.
Turning to “CCUCGUUGGGAGGAUAUCCUUUAGAUUGGAGGAGGAGAAGGCUCGACAUGAGGAUCACCCAUGUAAAAUUUAAA [-18.7, -17.5 kcal, A 31%] (Eterna round: R97, puzzle: Exclusion 6)”, the “apparent KD of MS2 coat protein” value amounted to 274 nM (input ligand: FMN 200 uM) and 73.3 nM (input ligand: none).
For “AAUACAAGCUAUUGAUCCCACAUGAGGAUCACCCAUGUAGCUGGCGGUGACACCUCCAUUACGAUAGCUCGUCUUAU [Sensor-V1 #56] (Eterna round: R97, puzzle: Sensor, turn-off variant 1)” the same measures were 796 nM and 1670 nM.
As to “AGUACUAUCACGAAAGUGAUAGUACGAGGAGCAAGUGGAACAUGAGGAUCACCCAUGUCCUCAUCUGCUCGUCUUAU [salish99-s2-v2-x008] (Eterna round: R96, puzzle: Sensor v2, turn-off variant 2)”, the “apparent KD of MS2 coat protein” value was determined as 13.5 nM (input ligand: FMN 200 uM), 172 nM under setting [2] and 16.3 nM (input ligand: none).
For the sequence “GAUUGACAUGAGGAUCACCCAUGUGAGGAUAUCGGCUGGACCGUGUUGGCUUCCGUCGCGAGAAGGCGCAUAGG [Exclusion 1 V42] (puzzle: Exclusion 1)”, the “apparent KD of MS2 coat protein” value by setting is: under setting [3], 61 nM; under setting [1], 43.5 nM; under setting [4], 46.4 nM.
As for “AUUUAAUUUAAUAAGAUCACAUGAGGAUCACCCAUGUUAUAAUAGGAUAUCAGCUCGAAUAGAGCUGAGAAGGAUUAUAACAUG [ExNG3/9-A4] (Eterna round: R96, puzzle: Exclusion NG 3)”, the “apparent KD of MS2 coat protein” value worked out at 17.2 nM (input ligand: FMN 200 uM), 138 nM under setting [2] and 29 nM (input ligand: none).
Consider “GGUACUAACACGAAAGUGUUAGUACAAUAAGCUUGUGAAACAUGAGGAUCACCCAUGUCCUCAUAAGCUCGUCUUAG [salish99_TOv2_r3_005] (puzzle: Sensor v3, turn-off variant 2)”, for which the “apparent KD of MS2 coat protein” value by setting is: under setting [3], 13.4 nM; under setting [1], 392 nM; under setting [4], 12.3 nM.
Take “CGUGACUCAGGAUAUCUAUUAUAUCACAUGAGGAUCACCCAUGUCCAGCGAAAGCUGGAGGGAGAAGGGAGUCACG [Fiskers Ex 5 - 44] (puzzle: Exclusion 5)”: the “apparent KD of MS2 coat protein” value under setting [3] was found to be 52.3 nM, the “apparent KD of MS2 coat protein” value under setting [1] was determined as 136 nM and the “apparent KD of MS2 coat protein” value under setting [4] amounted to 108 nM.
On to “GAAAAGGCAGAGGAUAUUUCAGGUCAAAGCUGCAAAGAAGGCUGCACAUGAGGAUCACCCAUGUGGUCUUAAAA [Mod of Quesina 6 - Jieux - Exclusion 6] (Eterna round: R97, puzzle: Exclusion 6)”, for which the “apparent KD of MS2 coat protein” value by setting is: (input ligand: FMN 200 uM) 150 nM; (input ligand: none) 22.6 nM.
